Paper PMC9993842 (2023)

Target: LRP2 (megalin) (Mus musculus, UniProt A2ARV4)
Assay: SPR

- Kd: 5.8 nM
B1: RAP (receptor-associated protein) (protein)
chain: YSREKNQPKPSPKRESGEEFRMEKLNQLWEKAQRLHLPPVRLAELHADLKIQERDELAWKKLKLDGLDEDGEKEARLIRNLNVILAKYGLDGKKDARQVTSNSLSGTQEDGLDDPRLEKLWHKAKTSGKFSGEELDKLWREFLHHKEKVHEYNVLLETLSRTEEIHENVISPSDLSDIKGSVLHSRHTELKEKLRSINQGLDRLRRVSHQGYSTEAEFEEPRVIDLWDLAQSANLTDKELEAFREELKHFEAKIEKHNHYQKQLEIAHEKLRHAESVGDGERVSRSREKHALLEGRTKELGYTVKKHLQDLSGRISRARHNEL
